Our source for the Biacore t/2 diss. [min] 25° C. murine, Biacore t/2 diss. [min] 37° C. murine and t/2 diss [min] 25° C. values is US20150132307A1.

Substitutions are numbered along the chain they refer to.

Assay [1] addresses Biotinylated murine soluble TWEAK (amino acids 81-225 of SEQ ID NO: 69) (murine) (UniProt O54907). As to the kind of experiment: SPR (Biacore), biotinylated soluble TWEAK on streptavidin chip, 25 C.
For assay [2] the target is unchanged. As to the kind of experiment: SPR (Biacore), biotinylated soluble TWEAK on streptavidin chip, 37 C.
Assay [3] has the same target. As to the kind of experiment: SPR (Biacore), further experiment, biotinylated soluble TWEAK on streptavidin chip, 25 C. (Surface plasmon resonance follows binding to a sensor surface in real time, without labels.)
The target is the same in assay [4]. As to the kind of experiment: SPR (Biacore 2000), biotinylated soluble TWEAK on streptavidin chip, antibody 100 nM as analyte, 25 C.

B1: Humanized <TWEAK> 305- antibody 27 (antibody, V domains shown)
VH: QVQLVQSGAEVKKPGSSVKVSCKASGFDFSTYYMSWVRQAPGQGLEWMGTVYVRQGTTYYASWLNGRVTITADESTSTAYMELSSLRSEDTAVYYCARGGYNYDDAFVIWGQGTLVTVSS
VL: DIQMTQSPSSVSASVGDRVTITCQASQNIYSNLAWYQQKPGKAPKLLIYTASYLASGVPSRFSGSGSGTDYTLTISSLQPEDFATYYCQTAYYNSRPDTVAFGGGTKVEIK
Consider B1, for which the Biacore t/2 diss. [min] 25° C. murine in assay [1] came out at 19 min. Further, the Biacore t/2 diss. [min] 37° C. murine in assay [2] was 19 min.

B2: Humanized <TWEAK> 305- antibody 29 (antibody, V domains shown)
VH: EVQLLESGGGLVQPGGSLRLSCAASGFDFSTYYMSWVRQAPGKGLEWVSTVYVRQGTTYYASWLNGRFTISRDNSKNTLDLQMNSLRAEDTAVYYCAKGGYNYDDAFVIWGQGTLVTVSS
VL: B1 VL
As to B2, the Biacore t/2 diss. [min] 25° C. murine in assay [1] came to 22 min. In addition, the Biacore t/2 diss. [min] 37° C. murine in assay [2] came out at 21 min.

B3: Humanized <TWEAK> 305- antibody 33 (antibody, V domains shown)
VH: B1 VH
VL: B1 VL with D1A, Q3R, V11F, V15T, S77C, P80S
As for B3, the Biacore t/2 diss. [min] 25° C. murine in assay [1] turned out to be 19 min. In assay [2], this molecule gave a Biacore t/2 diss. [min] 37° C. murine of 15 min.

B4: Humanized <TWEAK> 305- antibody 28 (antibody, V domains shown)
VH: B2 VH with R19T, D80Y
VL: B1 VL
In turn, B4 came in with a Biacore t/2 diss. [min] 25° C. murine in assay [1] of 19 min. The same molecule came in with a Biacore t/2 diss. [min] 37° C. murine in assay [2] of 17 min.

B5: Humanized <TWEAK> 305- antibody 34 (antibody, V domains shown)
VH: B2 VH with D80Y
VL: B1 VL with D1A, Q3R, V11F, V15T, S77C, P80S
The molecule B5 showed a Biacore t/2 diss. [min] 25° C. murine in assay [1] of 22 min. The molecule further registered a Biacore t/2 diss. [min] 37° C. murine in assay [2] of 20 min.

B6: Humanized <TWEAK> 305- antibody 32 (antibody, V domains shown)
VH: B2 VH
VL: B1 VL with S10T, V11L, D70E, Y71F, E81D
The molecule B6 had a Biacore t/2 diss. [min] 25° C. murine in assay [1] of 17 min. In assay [2], the Biacore t/2 diss. [min] 37° C. murine was 20 min.

B7: Humanized <TWEAK> 305- antibody 31 (antibody, V domains shown)
VH: B2 VH with R19T, D80Y
VL: B1 VL with D1A, Q3R, V11F, V15T, S77C, P80S
On to B7, for which the Biacore t/2 diss. [min] 25° C. murine in assay [1] amounted to 19 min. The same molecule registered a Biacore t/2 diss. [min] 37° C. murine in assay [2] of 19 min.

B8: Humanized <TWEAK> 305- antibody 30 (antibody, V domains shown)
VH: B2 VH with D80Y, R87T
VL: B1 VL with Y71F
In the case of B8, in assay [1], the Biacore t/2 diss. [min] 25° C. murine turned out to be 17 min. Also, in assay [2], the Biacore t/2 diss. [min] 37° C. murine stood at 15 min.

B9: <TWEAK> 305chi (antibody, human IgG1, kappa, V domains shown)
VH: QEQLVESGGGLVQPGGSLTLSCKASGFDFSTYYMSWVRQAPGKGLEWIGTVYVRQGTTYYASWLNGRFTISSDNAQNTVDLKMNSLTAADTATYFCAKGGYNYDDAFVIWGPGTLVTVSF
VL: AIEMTQTPFSVSAAVGGTVTINCQASQNIYSNLAWYQQKPGQPPKLLMYTASYLASGVPSRFKGSGSRTEYTLTISGVQCADAATYYCQTAYYNSRPDTVAFGGGTEVVVKR
As to B9, the t/2 diss [min] 25° C. was determined as 41 min in assay [3] and 39 min in assay [4].
